Measured values published in the supplement of paper PMC10567573.

B1: SMARCE1 (parent)
chain: YHNSPAYLAYINAKSRAEAALEEE
B2: CHIT1 (parent)
chain: CSWKGATKQRIQDQKVPYIFRDNQ

Variants of: B1
Assay: protein stability index of a GFP-peptide fusion (GPS, HEK-293T) (PSI 1-6); higher = more stable
Conditions: c terminus: a fixed tail appended
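Further: lentivirally expressed fusions sorted by FACS into six bins by GFP to DsRed ratio, PSI derived from sequencing read proportions per bin multiplied by bin number.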

Protein stability index: each site, then its substitutions
K14: W 1.62, C 2.14, G 2.89, N 2.57, S 1.51, R 2.51, I 2.81, A 1.79, V 2.15, Y 2.63, L 1.9, H 2.16, D 1.16, M 1.57, F 2.35, P 1.95, E 2.03, Q 2.55, T 2.86
E24: F 2.59, D 2.3, T 2.17, Y 1.71, M 2.55, W 1.63, S 3.47, C 2.38, R 2.71, I 1.88, A 2.12, P 1.45, H 1.91, N 2.47, G 1.95, Q 3.45, K 2.91, L 1.56, V 2.19
E22: D 2.21, F 2.04, S 2.41, V 2.73, R 2.25, T 2.36, I 2.59, A 2.7, N 2.44, K 1.86, Q 1.91, G 2.67, H 2.83, C 2.17, P 2.73, W 2.29, M 2.01, Y 1.9, L 4.41
E23: P 2.58, M 1.52, G 3.34, F 2.31, L 1.59, V 2.44, S 1.54, C 2.79, N 1.57, T 3.01, H 2.13, I 2.79, W 1.81, A 2.34, K 2.05, Q 1.59, D 1.54, R 1.82, Y 1.58
A17: Q 3.13, I 1.93, G 3.02, E 1.75, C 2.1, K 1.53, N 2.67, V 2.19, L 2.04, M 2.23, T 2.02, R 1.68, W 2.17, D 1.93, P 2.45, S 2.06, Y 2.05, H 2.22, F 2.24
S15: M 2.14, I 2.25, H 2.59, K 2.31, Y 1.62, L 2.42, T 2, R 2.04, G 2.11, N 2.29, E 2.29, V 2.26, Q 2.17, P 1.61, W 2.08, C 3.03, D 2.06, F 2.06, A 2.53
L21: E 1.84, Q 2.07, A 2.26, P 3.6, V 2.67, H 2.77, C 2.89, M 2.04, W 2.94, Y 1.94, D 1.88, K 2.51, G 2.15, N 2.46, S 1.95, F 3.43, I 3.51, T 1.59, R 2.1
A20: Q 1.79, S 1.84, R 2.89, M 1.32, F 1.69, I 2.25, G 3.01, H 2.51, E 2.32, W 1.93, L 2.15, K 2.71, N 2.42, T 1.61, V 2.56, C 2.27, Y 3.29, P 2.66, D 2.97
E18: C 2.46, R 1.97, L 1.61, G 2.31, D 2.4, K 3.05, N 2.21, V 2.76, S 2, Y 2.15, A 2.58, F 2.37, Q 1.51, H 2.33, M 2.11, P 1.88, T 1.82, I 3.18, W 2.76
R16: H 2.15, T 2.55, N 1.35, D 2.4, K 2.4, F 1.77, G 1.74, L 2.56, Q 2.17, I 2.2, P 2.12, E 2.33, S 2.43, A 2.04, C 2.72, Y 2.82, M 1.81, V 2.99
I11: D 3.19, T 2.99, K 2.59, V 2.33, W 2.35, H 2.46, R 2.29, P 3.06, E 2.64, L 2.24, F 2.67, G 1.87, Q 2.85, Y 3.27, N 2.59, M 2.35, C 1.66, S 2.99
A13: E 1.94, S 1.83, Y 2.13, N 1.9, K 2.52, H 2.88, T 2.28, F 2.06, C 3.05, V 2.33, R 2.51, W 1.64, I 2.49, D 1.94, P 2.63, L 2.21, G 2.27, Q 2.83, M 3.18
N12: M 2.33, S 1.58, K 2.41, Q 2.25, P 3.69, E 1.93, I 1.64, A 1.77, T 2.06, V 2.44, R 2.04, L 2.1, Y 2.23, C 2.02, D 2.26, H 3.13, W 2.09, F 2.28, G 1.65
Y10: P 2.11, W 2.28, K 3.03, M 2.3, L 2, I 3, R 3.34, N 2.05, V 2.41, S 2.56, T 3.44, Q 2.19
A19: C 2.84, W 2.48, N 2.43, Q 2.12, K 2.05, V 2.58, D 2.33, G 2.56, I 2.05, T 2.41, F 2.31, H 2.02, P 1.92, Y 2.46, R 2.59, M 2.24, L 2.49, S 2.06, E 2.69

Variants of: B2
Assay: as above
Conditions: c terminus: a fixed tail appended

Protein stability index: each site, then its substitutions
K4: C 2.36, A 1.94
W3: M 2.69, E 4.03, A 2.78, R 3.71, H 3.06, I 2.95, V 3.46, T 3.23, F 2.78, L 2.71, Q 3.6, C 2.06, Y 3.04, G 3.19, N 2.93, D 3.73, K 3.63, S 3.14
C1: R 2.86, H 3.08, M 2.89, E 3.13, K 3.36, D 3.26, V 2.91, Y 1.96, L 2.74, Q 2.81, N 2.88, A 3.17, F 1.75, I 2.62, G 3.47, W 2.26, T 2.79, P 2.86, S 3.58
S2: P 3.02, Q 1.93, R 2, L 2.18, M 2.43, A 2.39, V 1.85, Y 1.49, I 1.74, H 2.42, W 2.69, D 3.06, E 3.25, C 2.06, T 2.17, N 2.53, F 3.22, G 2.07, K 2.01
